According to paper PMC11241748, “DNA Repair Protein XRCC1 Stimulates Activity of DNA Polymerase λ under Conditions of Microphase Separation”:

Target: XRCC1 (UniProt P18887 1-633)
Experiment: DLS (DNA-induced higher-order assembly); elevated DNA concentration; Rh ~135 to ~740 nm vs 6.7 nm without DNA; DLS and microscopy buffer not given in the material; activity assay: 50 mM Tris-HCl pH 7.5, 5 mM Mg2+, 0.5 mM DTT, 0.25 mg/mL BSA, 37 °C. Kd values in Table 1 a
Details: protein: recombinant; tags: His-tag; chain copies: 2; label: 5'-32P on upstream strand as printed; 1-nt gap (template G) between strands 1 and 2, both paired to strand 3; blunt outer ends

B1: gap-DNA (dsDNA)
DNA 1: GGCGATTAAGTTGGG
DNA 2: AACGTCAGGGTCTTCC
DNA 3: GGAAGACCCTGACGTTGCCCAACTTAATCGCC
modifications: 5'-phosphate on downstream strand (5' margin of gap)
binding result: binds
